Test results reported in PMC3785576.

Molecular target: Bovine dermal collagen type I (bovine) (UniProt P02453)
Assay: ELISA

UniProt P02453, sequence (P02453 162-1217, chain 1 of 2): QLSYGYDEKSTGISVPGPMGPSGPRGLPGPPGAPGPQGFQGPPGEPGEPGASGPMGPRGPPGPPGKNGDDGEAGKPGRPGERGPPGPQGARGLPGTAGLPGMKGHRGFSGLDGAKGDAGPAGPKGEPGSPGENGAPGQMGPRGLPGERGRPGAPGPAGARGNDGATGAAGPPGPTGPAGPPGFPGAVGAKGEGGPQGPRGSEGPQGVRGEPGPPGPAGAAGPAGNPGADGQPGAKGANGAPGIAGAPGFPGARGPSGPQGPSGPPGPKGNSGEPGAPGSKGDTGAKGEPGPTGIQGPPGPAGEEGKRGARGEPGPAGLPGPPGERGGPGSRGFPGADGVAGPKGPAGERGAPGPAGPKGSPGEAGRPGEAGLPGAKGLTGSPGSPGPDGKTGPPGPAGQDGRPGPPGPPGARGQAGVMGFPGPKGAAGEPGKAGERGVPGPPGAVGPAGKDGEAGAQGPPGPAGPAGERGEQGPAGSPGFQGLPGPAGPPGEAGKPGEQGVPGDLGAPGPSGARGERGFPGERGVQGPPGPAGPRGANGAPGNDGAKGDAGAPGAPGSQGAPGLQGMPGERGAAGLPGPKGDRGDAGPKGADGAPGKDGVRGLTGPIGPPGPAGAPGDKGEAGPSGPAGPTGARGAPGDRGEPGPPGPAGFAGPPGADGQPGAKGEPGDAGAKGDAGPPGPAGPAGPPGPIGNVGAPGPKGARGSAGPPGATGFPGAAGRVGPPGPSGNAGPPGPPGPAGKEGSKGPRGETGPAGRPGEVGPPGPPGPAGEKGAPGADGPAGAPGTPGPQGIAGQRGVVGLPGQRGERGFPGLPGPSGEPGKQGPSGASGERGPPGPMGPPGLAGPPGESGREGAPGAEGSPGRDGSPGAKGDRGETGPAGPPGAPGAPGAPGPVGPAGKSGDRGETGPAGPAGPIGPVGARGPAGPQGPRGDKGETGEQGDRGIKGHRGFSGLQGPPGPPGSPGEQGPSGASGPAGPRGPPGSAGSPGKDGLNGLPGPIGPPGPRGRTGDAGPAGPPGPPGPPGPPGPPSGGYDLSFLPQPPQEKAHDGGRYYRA
UniProt P02453, sequence (P02465 80-1117, chain 2 of 2, further chain): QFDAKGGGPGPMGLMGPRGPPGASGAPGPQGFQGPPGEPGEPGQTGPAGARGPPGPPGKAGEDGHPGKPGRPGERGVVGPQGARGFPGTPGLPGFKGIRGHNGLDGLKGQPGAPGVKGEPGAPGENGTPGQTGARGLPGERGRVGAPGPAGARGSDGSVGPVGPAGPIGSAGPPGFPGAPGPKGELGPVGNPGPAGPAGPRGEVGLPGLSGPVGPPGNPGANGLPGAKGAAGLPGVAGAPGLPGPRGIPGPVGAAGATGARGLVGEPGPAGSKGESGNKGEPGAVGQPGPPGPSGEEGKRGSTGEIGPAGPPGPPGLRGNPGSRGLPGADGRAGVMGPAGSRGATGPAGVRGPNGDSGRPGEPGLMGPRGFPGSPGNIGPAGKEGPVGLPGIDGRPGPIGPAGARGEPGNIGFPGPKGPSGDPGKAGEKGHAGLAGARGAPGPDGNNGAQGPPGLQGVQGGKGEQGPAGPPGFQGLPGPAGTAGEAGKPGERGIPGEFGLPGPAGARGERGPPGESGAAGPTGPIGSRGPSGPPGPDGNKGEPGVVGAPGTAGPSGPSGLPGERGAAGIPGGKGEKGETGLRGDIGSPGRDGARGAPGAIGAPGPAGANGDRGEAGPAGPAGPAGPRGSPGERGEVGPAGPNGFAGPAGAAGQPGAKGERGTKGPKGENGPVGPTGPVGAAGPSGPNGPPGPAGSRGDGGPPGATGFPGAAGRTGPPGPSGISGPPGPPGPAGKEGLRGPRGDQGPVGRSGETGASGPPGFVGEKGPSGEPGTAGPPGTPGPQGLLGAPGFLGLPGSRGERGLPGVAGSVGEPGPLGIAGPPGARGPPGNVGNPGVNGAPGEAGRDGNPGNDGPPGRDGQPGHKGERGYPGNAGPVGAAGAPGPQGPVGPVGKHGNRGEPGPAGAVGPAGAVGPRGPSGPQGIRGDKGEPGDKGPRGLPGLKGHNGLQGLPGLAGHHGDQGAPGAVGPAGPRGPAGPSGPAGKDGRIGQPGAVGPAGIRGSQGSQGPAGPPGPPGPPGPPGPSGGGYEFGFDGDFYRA

Substance | IC50
Antibody (anti-Fc) induced oligomers of DDR1-Fc (from UniProt Q08345 21-417) (complex) | 2.5 nM
Fc-tagged extracellular domain of human DDR1 (dimeric DDR1-Fc) (from UniProt Q08345 21-417) (Fc fusion) | 7.85 nM
